T1: Abp1 SH3 (ABP1_YEAST), P15891
T1 chain: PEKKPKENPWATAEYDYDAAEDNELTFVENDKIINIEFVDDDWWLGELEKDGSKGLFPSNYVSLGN


Target: T1, Abp1 SH3 (ABP1_YEAST), P15891
Assay: SPOT array

Row | normalised SPOT signal, Boehringer light units (BLU); mean over the file's lines of this peptide | Binder
1 | 84.9 | ENYLSTRPSVLKP [YOR217W 594-606]
2 | 126 | EQKLPTALLSPLRP [YCL051W 196-209]
3 | 124 | EKTGNAHPLGFRP [YPR016W-A 66-78]
4 | 156 | EPPQDQAPSLPPKP [YCL008C 154-167]
5 | 4.8 | EGGAYIIPNFGKP [YPR184W 920-932]
6 | 21.5 | ENPIDKLDGTPKRP [YIL063C 22-35]
7 | 248 | EIQNGKRPVLLKP [YIR007W 368-380]
8 | 0 | EIERHETPLNIRP [YGR267C 9-21]
9 | 18.6 | EPASVYESNGPNKP [YMR086W 699-712]
10 | 1490 | EKFRVNRPIQLRP [YHL038C 520-532]
11 | 126 | EGKNEETPQNEKP [YKL144C 179-191]
12 | 38.6 | EKVYRTEEKAPIRP [YDL203C 183-196]
13 | 87.7 | EQIVLGQPKTNRP [YDR062W 281-293]
14 | 182 | EKGQALVVFSPHRP [YLR285W 193-206]
15 | 13.6 | EIFPNSKPLQPKP [YJL010C 631-643]
16 | 395 | EHSRVKLPHSPKP [YOR208W 421-433]
17 | 164 | ELNLKLLNLFPSKP [YGR134W 1043-1056]
18 | 80.9 | EKARNVEYKKPQKP [YCL061C 306-319]
19 | 143 | EMYQDKLPPNVKP [YHR190W 379-391]
20 | 97.9 | EHAVANGPSHRRP [YBL101C 762-774]
21 | 534 | EPVTKERPHFNKP [YER161C 148-160]

Row | normalised SPOT signal, Boehringer light units (BLU); mean over the file's lines of this peptide | Binder
22 | 80.3 | ENAVKSEQQFPGRP [YOR347C 67-80]
23 | 619 | EPKMQKQTIFPGKP [YHL022C 194-207]
24 | 140 | EKHELIIPTPSKP [YCL027W 384-396]
25 | 87.1 | ENRKGEKDAAPAKP [YGL061C 171-184]
26 | 201 | ERLERQFEEVPFRP [YPL027W 171-184]
27 | 96.5 | EHMLYIIPPQIKP [YIL103W 218-230]
28 | 67.3 | EKEKEKSPEISKP [YNR051C 181-193]
29 | 89.2 | ELKERDFDQAPLKP [YCR088W 207-220]
30 | 126 | EIELLVDSKDPNKP [YLL040C 1996-2009]
31 | 127 | ENEFQVIPIRFKP [YER085C 144-156]
32 | 24 | ELQNEDWPNESKP [YNL274C 336-348]
33 | 98.8 | ELFIIIQPPVMKP [YIR007W 413-425]
34 | 51.6 | EQAPTGLVLEPSKP [YBR284W 656-669]
35 | 132 | EGSQSVPIEIPKKP [YLR081W 51-64]
36 | 128 | EGQVLYDPEPFKP [YNL086W 59-71]
37 | 152 | ELRGLDDPTIVKP [YGR099W 548-560]
38 | 910 | EKASRFRPTIDRP [YJL196C 11-23]
39 | 130 | ELQKRVGPDNFKP [YKL155C 149-161]
40 | 67.4 | EQEEFTSPYFGRP [YIL031W 818-830]
41 | 106 | EHFDIPPPAIMKP [YOR116C 588-600]
42 | 138 | ENEPTLNPFTNKP [YJR122W 411-423]

Reference: publication PMC314469, “Protein Interaction Networks by Proteome Peptide Scanning” (PLoS Biology, 2004)
